Experiments:
[1] = biological target: T1, native EspB of wild-type EPEC; test: western blot of culture supernatants, detection with mAb-EspB-B7
T1 construct: also called EspB in the assembled T3SS; WT EPEC

[2] = biological target: T2, EspB of Citrobacter rodentium (Citrobacter rodentium DBS100); test: as above
T2 construct: also called C. rodentium EspB

B1: mAb-EspB-B7 (antibody, V domains shown)
VH: EVQLLESGGGLVQPGGSLRLSCAASGFTFSHYAMNWVRQAPGKGLEWVSAINSNGDSTYYPDTVKDRFTISRDNSKNTLYLQMNSLRAEDTAVYYCARDRRAGYFDYWGQGTLVTVSS
VL: DIVLTQPPSASGTPGQRVTISCSGSRDNIGKNYVSWYQQLPGTAPKLLIYRNNQRPSGVPDRFSGSKSGTSASLAISGLRSEDEADYYCSAWDTSLNAYVFGPGTQLTVL
notes: also called mAb-B7; EspB-specific monoclonal antibody
Question: Does B1 bind [1]?
Answer: Result: binds

Question: Does B1 bind [2]?
Answer: Result: binds
